Where a chain is given by its changes, count along the chain named.

Experimental findings from patent US20250114433A1 (published 2025) are described below.

Common to all, as to assay: cytokine release
In test [1] the target is T1, KRAS G12D (same sequence in NRAS and HRAS G12D) peptide on HLA-A*11:01 (human).
T1 peptide: VVVGADGVGK

Test [2] has as its target T2, KRAS G12D (same sequence in NRAS and HRAS G12D) peptide on HLA-A*11:01 (human).
T2 peptide: VVGADGVGK

Test [3] has as its target T3, KRAS G12V (same sequence in NRAS and HRAS G12V) peptide on HLA-A*11:01 (human).
T3 peptide: VVVGAVGVGK

For test [4], the target named is T4, KRAS G12V (same sequence in NRAS and HRAS G12V) peptide on HLA-A*11:01 (human).
T4 peptide: VVGAVGVGK

B1: TCR20 (TCR, V domains shown)
Valpha: DAKTTQPPSMDCAEGRAANLPCNHSTISGNEYVYWYRQIHSQGPQYIIHGLKNNETNEMASLIITEDRKSSTLILPHATLRDTAVYYCIVRLNSGNTPLVFGKGTRLSVIA
Vbeta: EAGVAQSPRYKIIEKRQSVAFWCNPISGHATLYWYQQILGQGPKLLIQFQNNGVVDDSQLPKDRFSAERLKGVDSTLKIQPAKLEDSAVYLCASSPTFPAGDRDTQYFGPGTRLTVL
On to B1, for which the binding result is “no recognition” in test [1], “no recognition” in test [2], “recognises” in test [3] and “recognises” in test [4].

B2: TCR19 (TCR, V domains shown)
Valpha: DQQVKQNSPSLSVQEGRISILNCDYTNSMFDYFLWYKKYPAEGPTFLISISSIKDKNEDGRFTVFLNKSAKHLSLHIVPSQPGDSAVYFCAASANNNDMRFGAGTRLTVKP
Vbeta: DAGVIQSPRHEVTEMGQEVTLRCKPISGHDYLFWYRQTMMRGLELLIYFNNNVPIDDSGMPEDRFSAKMPNASFSTLKIQPSEPRDSAVYFCASSPTGGGMLGQYFGPGTRLTVL
Turning to B2, the binding result in test [1] was “no recognition”; in test [2], “no recognition”; in test [4], “recognises”.

B3: A11 KRAS TCR_129_8 (TCR, V domains shown)
Valpha: B2 Valpha with S93N, A94T, N96A, N97G, D98K, M99S, R100T, A103D, R106T
Vbeta: DTGVSQDPRHKITKRGQNVTFRCDPISEHNRLYWYRQTLGQGPEFLTYFQNEAQLEKSRLLSDRFSAERPKGSFSTLEIQRTEQGDSAMYLCASSTGTAEQYFGPGTRLTVT
Regarding B3, the binding result in test [3] and in test [4] was “recognises” each time.

B4: A11 KRAS TCR_220_12 (TCR, V domains shown)
Valpha: AQSVTQLDSHVSVSEGTPVLLRCNYSSSYSPSLFWYVQHPNKGLQLLLKYTSAATLVKGINGFEAEFKKSETSFHLTKPSAHMSDAAEYFCVVSDMVSGYALNFGKGTSLLVTP
Vbeta: DIYQTPRYLVIGTGKKITLECSQTMGHDKMYWYQQDPGMELHLIHYSYGVNSTEKGDLSSESTVSRIRTEHFPLTLESARPSHTSQYLCASSESLYNEQFFGPGTRLTVL
For B4, the binding result was “recognises” in test [1], “no recognition” in test [2], “no recognition” in test [3] and “no recognition” in test [4].

B5: TCR17 (TCR, V domains shown)
Valpha: KVTQAQTEISVVEKEDVTLDCVYETRDTTYYLFWYKQPPSGELVFLIRRNSFDEQNEISGRYSWNFQKSTSSFNFTITASQVVDSAVYFCALSEVHASGGSYIPTFGRGTSLIVHP
Vbeta: DVKVTQSSRYLVKRTGEKVFLECVQDMDHENMFWYRQDPGLGLRLIYFSYDVKMKEKGDIPEGYSVSREKKERFSLILESASTNQTSMYLCASSLGAGQHNSPLHFGNGTRLTVT
Regarding B5, the binding result is on record as “recognises” in test [1], “no recognition” in test [2], “no recognition” in test [3] and “no recognition” in test [4].

B6: TCR15 (TCR, V domains shown)
Valpha: QKEVEQNSGPLSVPEGAIASLNCTYSDRGSQSFFWYRQYSGKSPELIMFIYSNGDKEDGRFTAQLNKASQYVSLLIRDSQPSDSATYLCAVNARGNMLTFGGGTRLMVKP
Vbeta: SQTIHQWPATLVQPVGSPLSLECTVEGTSNPNLYWYRQAAGRGLQLLFYSVGIGQISSEVPQNLSASRPQDRQFILSSKKLLLSDSGFYLCAWTLTGFGQPQHFGDGTRLSIL
Consider B6, for which the binding result in test [1] is given as “no recognition”; in test [2], “no recognition”; in test [3] it was “recognises”; in test [4], “no recognition”.

B7: A11 KRAS TCR_129_2 (TCR, V domains shown)
Valpha: SQQGEEDPQALSIQEGENATMNCSYKTSINNLQWYRQNSGRGLVHLILIRSNEREKHSGRLRVTLDTSKKSSSLLITASRAADTASYFCASSGGGADGLTFGKGTHLIIQP
Vbeta: KAGVTQTPRYLIKTRGQQVTLSCSPISGHRSVSWYQQTPGQGLQFLFEYFSETQRNKGNFPGRFSGRQFSNSRSEMNVSTLELGDSALYLCASSLGGAGETQYFGPGTRLLVL
B7: the binding result in test [1] was “recognises”.

B8: A11 KRAS TCR_141_7 (TCR, V domains shown)
Valpha: AQSVTQPDIHITVSEGASLELRCNYSYGATPYLFWYVQSPGQGLQLLLKYFSGDTLVQGIKGFEAEFKRSQSSFNLRKPSVHWSDAAEYFCAVTGGGNKLTFGTGTQLKVEL
Vbeta: DTGVSQDPRHKITKRGQNVTFRCDPISEHNRLYWYRQTLGQGPEFLTYFQNEAQLEKSRLLSDRFSAERPKGSFSTLEIQRTEQGDSAMYLCASSLAGETGELFFGEGSRLTVL
Take B8: the binding result in test [1] is reported as “recognises”.

B9: TCR18 (TCR, V domains shown)
Valpha: SQQGEEDPQALSIQEGENATMNCSYKTSINNLQWYRQNSGRGLVHLILIRSNEREKHSGRLRVTLDTSKKSSSLLITASRAADTASYFCATDEGGGADGLTFGKGTHLIIQP
Vbeta: DSGVTQTPKHLITATGQRVTLRCSPRSGDLSVYWYQQSLDQGLQFLIQYYNGEERAKGNILERFSAQQFPDLHSELNLSSLELGDSALYFCASSVTWGPYEQYFGPGTRLTVT
For B9, the binding result in test [1], in test [2], in test [3] and in test [4] was “no recognition” throughout.

B10: TCR14 (TCR, V domains shown)
Valpha: B9 Valpha
Vbeta: DSGVTQTPKHLITATGQRVTLRCSPRSGDLSVYWYQQSLDQGLQFLIQYYNGEERAKGNILERFSAQQFPDLHSELNLSSLELGDSALYFCASTHGRDSTDTQYFGPGTRLTVL
Turning to B10, the binding result was “no recognition” in test [1], “no recognition” in test [2], “no recognition” in test [3] and “recognises” in test [4].

B11: A11 KRAS TCR_141_6 (TCR, V domains shown)
Valpha: B9 Valpha with E93V, G94F, G95Q, D98Q, G99K, T101V, K104Q, H107R, I109T, Q111N
Vbeta: EAGVAQSPRYKIIEKRQSVAFWCNPISGHATLYWYQQILGQGPKLLIQFQNNGVVDDSQLPKDRFSAERLKGVDSTLKIQPAKLEDSAVYLCASSIETSYEQYFGPGTRLTVT
With B11, the binding result in test [3] and in test [4] was “recognises” in each case.

B12: A11 KRAS TCR_220_21 (TCR, V domains shown)
Valpha: GEDVEQSLFLSVREGDSSVINCTYTDSSSTYLYWYKQEPGAGLQLLTYIFSNMDMKQDQRLTVLLNKKDKHLSLRIADTQTGDSAIYFCAEPIIGGNTPLVFGKGTRLSVIA
Vbeta: GAGVSQSPRYKVAKRGQDVALRCDPISGHVSLFWYQQALGQGPEFLTYFQNEAQLDKSGLPSDRFFAERPEGSVSTLKIQRTQQEDSAVYLCASSSEGLAGGPTAGELFFGEGSRLTVL
In the case of B12, the binding result in test [1] was “no recognition”; in test [2] it was “no recognition”; in test [3], “recognises”.

B13: TCR23 (TCR, V domains shown)
Valpha: TQLLEQSPQFLSIQEGENLTVYCNSSSVFSSLQWYRQEPGEGPVLLVTVVTGGEVKKLKRLTFQFGDARKDSSLHITAAQPGDTGLYLCAGVREAGGTSYGKLTFGQGTILTVHP
Vbeta: DAEITQSPRHKITETGRQVTLACHQTWNHNNMFWYRQDLGHGLRLIHYSYGVQDTNKGEVSDGYSVSRSNTEDLPLTLESAASSQTSVYFCASSEYVGAHEQYFGPGTRLTVT
For B13, the binding result in test [1] is recorded as “no recognition”; in test [2], “no recognition”; in test [3], “recognises”; in test [4] it was “no recognition”.

B14: A11_TCR22 (TCR, V domains shown)
Valpha: QKEVEQDPGPLSVPEGAIVSLNCTYSNSAFQYFMWYRQYSRKGPELLMYTYSSGNKEDGRFTAQVDKSSKYISLFIRDSQPSDSATYLCAMSAGAAGNKLTFGGGTRVLVKP
Vbeta: EADIYQTPRYLVIGTGKKITLECSQTMGHDKMYWYQQDPGMELHLIHYSYGVNSTEKGDLSSESTVSRIRTEHFPLTLESARPSHTSQYLCASSQGLYNEQFFGPGTRLTVL
B14: the binding result in test [1] is reported as “recognises”; in test [2] it was “no recognition”; in test [3], “no recognition”; in test [4], “no recognition”.

B15: TCR21 (TCR, V domains shown)
Valpha: B14 Valpha with A93G, A95N, K99M, V108L, L109M
Vbeta: B14 Vbeta with Q95V
Regarding B15, the binding result in test [1] is on record as “recognises”; in test [2] it was “no recognition”; in test [3], “no recognition”; in test [4] it was “no recognition”.

B16: A11_TCR16 (TCR, V domains shown)
Valpha: KDQVFQPSTVASSEGAVVEIFCNHSVSNAYNFFWYLHFPGCAPRLLVKGSKPSQQGRYNMTYERFSSSLLILQVREADAAVYYCVLNRDDKIIFGKGTRLHILP
Vbeta: DAGVIQSPRHEVTEMGQEVTLRCKPISGHDYLFWYRQTMMRGLELLIYFNNNVPIDDSGMPEDRFSAKMPNASFSTLKIQPSEPRDSAVYFCASSRLGPYNEQFFGPGTRLTVL
In the case of B16, the binding result in test [1] is “recognises”; in test [2] it was “no recognition”; in test [3], “no recognition”; in test [4], “no recognition”.
